B1: HIS-tagged recombinant PSPC1 (natural protein, mouse, UniProt Q8R326-1 3-523, looked up)
chain: LRGNLKQVRIEKNPARLRALESAAGESEPVAAAAMALTLAGEQAPPPAPSEEHPDEELGFTIDIKSFLKPGEKTYTQRCRLFVGNLPTDITEEDFKRLFERYGEPSEVFINRDRGFGFIRLESRTLAEIAKAELDGTILKSRPLRIRFATHGAALTVKNLSPVVSNELLEQAFSQFGPVEKAVVVVDDRGRATGKGFVEFAAKPPARKALERCGDGAFLLTTTPRPVIVEPMEQFDDEDGLPEKLMQKTQQYHKEREQPPRFAQPGTFEFEYASRWKALDEMEKQQREQVDRNIREAKEKLEAEMEAARHEHQLMLMRQDLMRRQEELRRLEELRNQELQKRKQIQLRHEEEHRRREEEMIRHREQEELRRQQEGGFKPNYMENREQEMRMGDMGPRGAINMGDAFSPAPAGTQGPPPMMGMNMNNRGTIPGPPMGPGPAMGPEGAANMGTPMIPDNGAVHNDRFPQGPPSQMGSPMGNRTGSETPQAPMSGVGPVSGGPGGFGRGSQGGNFEGPNKRRRY
B2: GST-IMPα4 (natural protein, mouse, UniProt O35343 1-521, looked up)
chain: MADNEKLDNQRLKNFKNKGRDLETMRRQRNEVVVELRKNKRDEHLLKRRNVPQEDICEDSDIDGDYRVQNTSLEAIVQNASSDNQGIQLSAVQAARKLLSSDRNPPIDDLIKSGILPILVHCLERDDNPSLQFEAAWALTNIASGTSEQTQAVVQSNAVPLFLRLLHSPHQNVCEQAVWALGNIIGDGPQCRDYVISLGVVKPLLSFISPSIPITFLRNVTWVMVNLCRHKDPPPPMETIQEILPALCVLIHHTDVNILVDTVWALSYLTDAGNEQIQMVIDSGIVPHLVPLLSHQEVKVQTAALRAVGNIVTGTDEQTQVVLNCDALSHFPALLTHPKEKINKEAVWFLSNITAGNQQQVQAVIDANLVPMIIHLLDKGDFGTQKEAAWAISNLTISGRKDQVAYLIQQNVIPPFCNLLTVKDAQVVQVVLDGLSNILKMAEDQAETIANLIEECGGLEKIEQLQNHENEDIYKLAYEIIDQFFSSDDIDEDPSLVPESVQGGTFGFNSSTNVPTEGFQF

How the values were obtained:
Assay in all cases: ELISA
[1] = biological target: GST-tagged full-length IMPα2 (mouse, UniProt P52293 1-529)
[2] = biological target: IMPα6/GST-IMPβ1 heterodimer (tag-free IMPα6 predimerized with GST-IMPβ1) (mouse | , UniProt O35345 1-536; P70168 1-876)
IMPα6/GST-IMPβ1 heterodimer (tag-free IMPα6 predimerized with GST-IMPβ1), sequence (P70168 whole entry, chain 2 of 2): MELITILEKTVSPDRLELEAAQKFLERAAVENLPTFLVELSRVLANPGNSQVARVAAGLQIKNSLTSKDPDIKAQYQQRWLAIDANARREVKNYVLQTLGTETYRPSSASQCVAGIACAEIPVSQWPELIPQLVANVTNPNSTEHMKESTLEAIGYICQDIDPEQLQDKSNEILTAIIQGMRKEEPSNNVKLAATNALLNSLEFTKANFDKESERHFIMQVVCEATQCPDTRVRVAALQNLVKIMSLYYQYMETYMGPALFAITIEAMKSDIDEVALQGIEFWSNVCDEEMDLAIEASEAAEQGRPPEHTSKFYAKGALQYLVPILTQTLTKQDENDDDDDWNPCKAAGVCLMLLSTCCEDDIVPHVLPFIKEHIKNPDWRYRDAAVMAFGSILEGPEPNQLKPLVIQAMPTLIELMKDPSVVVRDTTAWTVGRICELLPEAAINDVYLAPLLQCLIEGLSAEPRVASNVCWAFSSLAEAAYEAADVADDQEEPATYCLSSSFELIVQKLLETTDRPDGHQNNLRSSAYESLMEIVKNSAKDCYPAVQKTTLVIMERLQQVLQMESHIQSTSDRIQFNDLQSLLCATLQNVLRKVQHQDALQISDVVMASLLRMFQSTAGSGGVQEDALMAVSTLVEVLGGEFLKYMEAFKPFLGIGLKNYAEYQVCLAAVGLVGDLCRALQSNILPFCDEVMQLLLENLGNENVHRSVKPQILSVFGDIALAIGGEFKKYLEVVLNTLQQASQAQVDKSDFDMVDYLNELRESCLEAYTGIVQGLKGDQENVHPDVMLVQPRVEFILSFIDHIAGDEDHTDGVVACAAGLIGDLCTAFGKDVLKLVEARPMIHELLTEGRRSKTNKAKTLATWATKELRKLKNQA

GST-IMPα6 = GST-IMPα6 (mouse, UniProt O35345 1-536)
[3] = biological target: IMPα4/GST-IMPβ1 heterodimer (tag-free IMPα4 predimerized with GST-IMPβ1) (mouse | , UniProt O35343 1-521; P70168 1-876)
IMPα4/GST-IMPβ1 heterodimer (tag-free IMPα4 predimerized with GST-IMPβ1), sequence (P70168 whole entry, one chain of several): as the sequence (P70168 whole entry, chain 2 of 2) above

[4] = biological target: IMPα2/GST-IMPβ1 heterodimer (tag-free IMPα2 predimerized with GST-IMPβ1) (mouse | , UniProt P52293 1-529; P70168 1-876)
IMPα2/GST-IMPβ1 heterodimer (tag-free IMPα2 predimerized with GST-IMPβ1), sequence (P70168 whole entry, one chain of several): as the sequence (P70168 whole entry, chain 2 of 2) above

[5] = biological target: B1

Binder	Kd [1] [nM]	Kd [2] [nM]	Kd (GST-IMPα6) [nM]	Kd [3] [nM]	Kd [4] [nM]	Kd [5] [nM]
B1	15	2.1	5.9	21.3	1.9	
B2						57.9

— article PMC4395133 (Molecular Biology of the Cell, 2015)
